Experimental data taken from the supplement of paper PMC9170038.

Test system: MS2 coat protein
Assay: apparent KD of MS2 coat protein; designed switch direction (-1 OFF switch, 1 ON switch): -1; higher = weaker reporter binding
Summary of the method: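 Transcription of designed RNA switches on Illumina chips was done by stalled E. coli RNA polymerase. SNAP-549-labelled MS2 coat protein was then titrated in doubling steps from 0.7 or 1.5 nM to 3 µM, with steps of 0.8–1.5 h at the lowest and 10–20 min at the highest concentration. The per-design median over clusters of curve-fitted normalised fluorescence is reported as apparent KD.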

[1] = input ligand: microRNA oligo, concentration not stated
[2] = Eterna round: R95, input ligand: microRNA oligo, concentration not stated

Row | Sequence | apparent KD of MS2 coat protein (input ligand: FMN 200 uM) [nM] | apparent KD of MS2 coat protein (input ligand: none) [nM] | apparent KD of MS2 coat protein [1] [nM] | apparent KD of MS2 coat protein (Eterna round: R95, input ligand: FMN 200 uM) [nM] | apparent KD of MS2 coat protein [2] [nM] | apparent KD of MS2 coat protein (Eterna round: R95, input ligand: none) [nM]
1 | UCUUGUUGUCCUUGAUUUUACAUGAGGAUCACCCAUGUUAUUUUGAUUAUGAUGUGUAAGUUUGUUGCUCGUUUUAU [JR_STOV1_Sub068] (Eterna round: R97, puzzle: Sensor, turn-off variant 1) | 49.8 | 54.3 | – | – | – | –
2 | UGAAACCUAGGAUAUACAUGAGGAUCACCCAUGUAAUGUAGUAUAGUAUAUGUAAGAUGUAGAAGGAGGAAUGU [LRO-Excl05-27-Smart Aleck] (Eterna round: R97, puzzle: Exclusion 3) | 30.9 | 34.9 | – | – | – | –
3 | UGAAUACGUGUUAGGAUAUGGUUUGGUAUUUUAGAUUAGAAGGGACAUGAGGAUCACCCAUGUAAUUGAUAGGU [-13, -10.4 kcal, 30% A] (Eterna round: R97, puzzle: Brourd's mod of Exclusion 4) | 38 | 41.9 | – | – | – | –
4 | UGAGAGAGUAUAGGAUAUUAGAGGAGAAUGGUGAUAGAGACAUGAGGAUCACCCAUGUGAGGAGAUAAGAAGGGUAAGAACUCA [AK ExNG2-V2-4] (Eterna round: R96, puzzle: Exclusion NG 2) | 452 | 435 | 292 | – | – | –
5 | UGAGAGCAAGGAUAUACGUUGGUGUAUACCCGGGUAUGUAUACAUGAGGAUCACCCAUGUAGAAGGUGCACAAA [EX2 B.1] (Eterna round: R97, puzzle: Exclusion 2) | 120 | 36 | – | – | – | –
6 | UGAGAGUGAGGAUAUACGUCGCUGGUCCGGAUGGACGCAUGACAUGAGGAUCACCCAUGUAGAAGGCAUUUCCC [Enxela Mod 6 - Jieux - Exclusion 2] (Eterna round: R97, puzzle: Exclusion 2) | 75.2 | 26.9 | – | – | – | –
7 | UGAGCAACAGGAUAUAUAUGGCGACCGUGAGGUCGAAGGUUACAUGAGGAUCACCCAUGUAGAAGGGUUGUUCU [Mat - Exclusion 2 - JL Mod - D16] (Eterna round: R97, puzzle: Exclusion 2) | 279 | 102 | – | – | – | –
8 | UGAGCUUGAGGAUAUACAAGGCGACCGUGAGGUCGAGGUUUACAUGAGGAUCACCCAUGUAGAAGGCAAGUUCU [Mat - Exclusion 2 - JL Mod - D8] (Eterna round: R97, puzzle: Exclusion 2) | 41.9 | 18.5 | – | – | – | –
9 | UGAGUGUGAGGAUAUGGUAAAGAUAAGAUGAUGAAAGAACUCCAGAAGGCACAUGAGGAUCACCCAUGUAGAUG [JL-ex4-2.12 Jieux mod] (puzzle: Exclusion 4) | – | – | – | 81.1 | 35.4 | 35.7
10 | UGAUAGAGCCUAGGAUAUUCGGAUCUACUACAAGGAGAAGGAGGUAGUCGGUGACGAACAUGAGGAUCACCCAUGUCGUCCUUC [Eternabot solution 37] (Eterna round: R96, puzzle: Exclusion NG 1) | – | – | 61.7 | – | – | –
11 | UGAUCACAUGAGGAUCACCCAUGUCAGGAUAUCUACAUUGAAGCCUCGGCUUCAAUGUAGAGAAGGGACAUAAU [E1/3-B2] (Eterna round: R97, puzzle: Exclusion 1) | 33.2 | 71.1 | – | – | – | –
12 | UGAUCACAUGAGGAUCACCCAUGUCAGGAUAUCUACAUUGAAGCUGCGGCUUCAAUGUAGAGAAGGGACAUAAU [E1/3-B3] (Eterna round: R97, puzzle: Exclusion 1) | 117 | 355 | – | – | – | –
13 | UGAUCACAUGAGGAUCACCCAUGUCAGGAUAUCUACAUUGAAGCUUCGGCUUCAAUGUAGAGAAGGGACAUAAU [E1/3-B1] (Eterna round: R97, puzzle: Exclusion 1) | 115 | 175 | – | – | – | –
14 | UGAUCACAUGAGGAUCACCCAUGUCAGGAUAUCUACAUUGAAGCUUCGGCUUCAAUGUAGAGAAGGGAUAUAAU [E1/5-B1] (Eterna round: R97, puzzle: Exclusion 1) | 203 | 82.8 | – | – | – | –
15 | UGAUCAGACCGAGGAUAUAUAUGGAGGACGCACGUGAGUGCGUCCACUACAUGAGGAUCACCCAUGUAGAAGGCGGUCUGAUCU [JL ENG2 1.98] (Eterna round: R96, puzzle: Exclusion NG 2) | 26.2 | 13.1 | 9.6 | – | – | –
16 | UGAUCUAGCGGAGGAUAUACAUGAGGAUCACCCAUGUAAAUCGCUGAACCGUAGUUCAGCAUCAUGUAGAAGGCCGCUAGAUCU [MOD2 ENG2 3.62 by JL] (Eterna round: R96, puzzle: Exclusion NG 2) | 473 | 70.4 | 55.6 | – | – | –
17 | UGAUCUAGCGGAGGAUAUACAUGAGGAUCACCCAUGUAGAUAACAUGACCGUAGUCGUGUAACGUGUAGAAGGCCGCUAGAUCU [JL ENG2 3.68] (Eterna round: R96, puzzle: Exclusion NG 2) | 104 | 23 | 17 | – | – | –
18 | UGAUCUAGCGGAGGAUAUACAUGAGGAUCACCCAUGUAGAUAACAUGACCGUAGUCGUGUAUUGUGUAGAAGGCCGCUAGAUCU [JL ENG2 3.66] (Eterna round: R96, puzzle: Exclusion NG 2) | 40.8 | 18.8 | 14.3 | – | – | –
19 | UGAUCUAGGCGAGGAUAUACAUGAGGAUCACCCAUGUAAUGGUGACAUGCGUACAUGUCACCUAUGUAGAAGGCGCCUAGAUCU [JL ENG2 3.55] (Eterna round: R96, puzzle: Exclusion NG 2) | 19.6 | 13 | 9 | – | – | –
20 | UGCAGACGAGGAUAUGAUAAUUAAUACAUGAGGAUCACCCAUGUAAUACUGAUCCAUGGAUCAGAAGGCGUCUGCU [E5/4-A3] (Eterna round: R97, puzzle: Exclusion 5) | 20.2 | 13.7 | – | – | – | –
21 | UGCCGGCAUGUAAGGAUAUCCAGGAGAUGUAGAUCGGAGAAGGUACAUGAGGAUCACCCAUGUAUUCCAAUAAA [BmEX4 C.19] (Eterna round: R97, puzzle: Brourd's mod of Exclusion 4) | 18 | 18.5 | – | – | – | –
22 | UGCCGUUUAGGAUAUACAUGAGGAUCACCCAUGUGACACACAUAUUUUACAAAACCAUGUAGAAGGAAACGGCA [E3-1.0] (Eterna round: R96, puzzle: Exclusion 3) | 542 | 114 | 95.4 | – | – | –
23 | UGCGCUUAAGGAUAUACUUCGGUGCGCCGAGAGUACGGCUAACUUGAGGAUCACCCAAGUAGAAGGUAAGAAAC [Esleberibe] (Eterna round: R97, puzzle: Exclusion 2) | 42 | 1270 | – | – | – | –
24 | UGCGGUGAGGUAAGGAUAUUUGGGCAAUUACGCCCGGAGAAGGUACAUGAGGAUCACCCAUGUGCAGUAAGGCU [Eternabot (L2) Solution 18] (Eterna round: R97, puzzle: Brourd's mod of Exclusion 4) | 122 | 26.9 | – | – | – | –
25 | UGCUACAUGAGGAUCACCCAUGUAAUGUGGGAUUCGUUAGGACAGGAUAUGAUUGUAUUGUUUUUUCAGAAGGGUCAUUACUUU [JR_ExcNG3_Sub011] (Eterna round: R96, puzzle: Exclusion NG 3) | 74.4 | 52.9 | 34.6 | – | – | –
26 | UGCUGACAAGGAUAUACAUGAGGAUCACCCAUGUUGGUUCAGCGACGAUAGUCGCAAUGUAGAAGGUGUCAGCA [E3/9-C1] (Eterna round: R97, puzzle: Exclusion 3) | 135 | 236 | – | – | – | –
27 | UGCUGACGAGGAUAUACAUGAGGAUCACCCAUGUUGGUUCAGCGACGAUAGUCGCAAUGUAGAAGGCGUCAGCU [E3/9-A3] (Eterna round: R97, puzzle: Exclusion 3) | 202 | 765 | – | – | – | –
28 | UGGAUAACAGGAUAUACAUGAGGAUCACCCAUGUUUCCGGACGGAGACGAAUCCUAGAGUAGAAGGGUUAUCCC [Eternabot (Original) Solution 17] (Eterna round: R97, puzzle: Exclusion 3) | 388 | 362 | – | – | – | –
29 | UGGGUCACAGGAUAUACAUGAGGAUCACCCAUGUCGUAUUUCGUGGCGGAGAGCUCGAGUAGAAGGGUGCAUCC [Malarala] (Eterna round: R96, puzzle: Exclusion 3) | 297 | 148 | 58.9 | – | – | –
30 | UGGGUCACAGGAUAUACAUGAGGAUCACCCAUGUCGUAUUUCGUGGCGGAGAGCUCGAGUAGAAGGGUGCAUCC [Malarala] (puzzle: Exclusion 3) | – | – | – | – | 96.3 | –
